Data on 31 molecules can be found in publication PMC10786891, “Massively parallel profiling of RNA-targeting CRISPR-Cas13d”.

To fix the notation:
B1: target 1 insC 3' of 15,insG 3' of 11 (mixed)
RNA 1: CACCCGUGCAAAAAUGCAGGGGUCUAAAACUGAGCGGAUAACCUCUCUAUGG
RNA 2: GGGAAUGGAUCCACAUCUACGAAUUCGUACCAUAGAGCAGGUGUAUCCGCUCACCGAGAUCGGAAGAGCACACGU
B2: target 1 G5C,U11C (mixed)
RNA 1: B1 RNA 1
RNA 2: GGGAAUGGAUCCACAUCUACGAAUUCGUACCAUAGAGAGGCUAUCCCCUCACCGAGAUCGGAAGAGCACACGU
B3: target 1 C2U,G15A (mixed)
RNA 1: B1 RNA 1
RNA 2: B2 RNA 2 with G37A, C41U, C47G, C50U
B4: target 1 insA 3' of 12,insG 3' of 6 (mixed)
RNA 1: B1 RNA 1
RNA 2: B1 RNA 2 with C38A, A39G, G41A, G43U, U44A, A45U, U46C, C48G
B5: target 1 insC 3' of 11,insU 3' of 9 (mixed)
RNA 1: B1 RNA 1
RNA 2: B1 RNA 2 with C38A, A39G, G41U, U42C, G43U, U44A, A45U
B6: target 1 insG 3' of 14,insA 3' of 4 (mixed)
RNA 1: B1 RNA 1
RNA 2: B1 RNA 2 with C38A, A39G, G43U, U44A, A45U, U46C, C48G, G49C, C50A
B7: target 1 insA 3' of 8,insU 3' of 6 (mixed)
RNA 1: B1 RNA 1
RNA 2: B1 RNA 2 with C38A, A39G, G41U, G43A, U46C, C48U
B8: target 1 insA 3' of 2,insA 3' of 2 (mixed)
RNA 1: B1 RNA 1
RNA 2: GGGAAUGGAUCCACAUCUACGAAUUCGUACCAUAGAGAGGUUAUCCGCUCAAACCGAGAUCGGAAGAGCACACGU
B9: target 1 insU 3' of 14,insU 3' of 12 (mixed)
RNA 1: B1 RNA 1
RNA 2: B1 RNA 2 with C38A, A39U, G43U
B10: target 1 insG 3' of 16,insU 3' of 16 (mixed)
RNA 1: B1 RNA 1
RNA 2: B1 RNA 2 with C38U, A39G, G40A, U42G, G43U
B11: target 1 C7G,A18C (mixed)
RNA 1: B1 RNA 1
RNA 2: B2 RNA 2 with A34C, C41U, C45G, C47G
B12: target 1 insG 3' of 7,insC 3' of 3 (mixed)
RNA 1: B1 RNA 1
RNA 2: B8 RNA 2 with C46G, G47C, C48G, U49C, C50U, A51C, A52C
B13: target 1 insA 3' of 10,insG 3' of 4 (mixed)
RNA 1: B1 RNA 1
RNA 2: B8 RNA 2 with U44A, C45U, G47C, C48G, U49C, C50G, A51U, A52C
B14: target 1 insA 3' of 13,insG 3' of 11 (mixed)
RNA 1: B1 RNA 1
RNA 2: B1 RNA 2 with C38A, A39G, G40A
B15: target 1 U3A,G15C (mixed)
RNA 1: B1 RNA 1
RNA 2: B2 RNA 2 with G37C, C41U, C47G, U49A
B16: target 1 insC 3' of 18,insG 3' of 3 (mixed)
RNA 1: B1 RNA 1
RNA 2: GGGAAUGGAUCCACAUCUACGAAUUCGUACCAUACGAGAGGUUAUCCGCUGCACCGAGAUCGGAAGAGCACACGU
B17: target 1 insA 3' of 12,insG 3' of 4 (mixed)
RNA 1: B1 RNA 1
RNA 2: B16 RNA 2 with C35G, G36A, A37G, G38A, A39G, G41A, U50G, G51U
B18: target 1 insU 3' of 13,insG 3' of 3 (mixed)
RNA 1: B1 RNA 1
RNA 2: B16 RNA 2 with C35G, G36A, A37G, G38A, A39G, G40U
B19: target 1 A1U,U19C (mixed)
RNA 1: B1 RNA 1
RNA 2: B2 RNA 2 with U33C, C41U, C47G, A51U
B20: target 1 insU 3' of 20,insA 3' of 10 (mixed)
RNA 1: B1 RNA 1
RNA 2: B1 RNA 2 with A34U, G35A, A36G, G37A, C38G, G43U, U44A
B21: target 1 U3G,G12C (mixed)
RNA 1: B1 RNA 1
RNA 2: B2 RNA 2 with G40C, C41U, C47G, U49G
B22: target 1 insC 3' of 14,insG 3' of 6 (mixed)
RNA 1: B1 RNA 1
RNA 2: B1 RNA 2 with C38A, A39C, G43U, U44A, A45U, U46C, C48G
B23: target 1 insG 3' of 14,insG 3' of 7 (mixed)
RNA 1: B1 RNA 1
RNA 2: B8 RNA 2 with U41G, A43U, U44A, C45U, U49G, A51U, A52C
B24: target 1 insA 3' of 2,insC 3' of 1 (mixed)
RNA 1: B1 RNA 1
RNA 2: B8 RNA 2 with A53C
B25: target 1 insG 3' of 10,insG 3' of 9 (mixed)
RNA 1: B1 RNA 1
RNA 2: B1 RNA 2 with C38A, A39G, G41U, U44A, A45G
B26: target 1 insC 3' of 22,insC 3' of 13 (mixed)
RNA 1: B1 RNA 1
RNA 2: GGGAAUGGAUCCACAUCUACGAAUUCGUACCCAUAGAGAGCGUUAUCCGCUCACCGAGAUCGGAAGAGCACACGU
B27: target 1 insG 3' of 20,insU 3' of 18 (mixed)
RNA 1: B1 RNA 1
RNA 2: B26 RNA 2 with C32A, A33G, G36U, A37G, G38A, A39G, G40A, C41G
B28: target 1 insA 3' of 2,insU 3' of 1 (mixed)
RNA 1: B1 RNA 1
RNA 2: B8 RNA 2 with A53U
B29: target 1 C7G,C22G (mixed)
RNA 1: B1 RNA 1
RNA 2: B2 RNA 2 with C30G, C41U, C45G, C47G
B30: target 1 U8C,G15C (mixed)
RNA 1: B1 RNA 1
RNA 2: B2 RNA 2 with G37C, C41U, U44C, C47G
B31: target 1 insA 3' of 2,insG 3' of 1 (mixed)
RNA 1: B1 RNA 1
RNA 2: B8 RNA 2 with A53G

Numbering of substitutions follows the chain as printed. Names may count otherwise.

The data set deals with T1, EsCas13d, nuclease-dead (Eubacterium siraeum, UniProt B0MS50, R295A;H300A;R849A;H854A).
T1 sequence: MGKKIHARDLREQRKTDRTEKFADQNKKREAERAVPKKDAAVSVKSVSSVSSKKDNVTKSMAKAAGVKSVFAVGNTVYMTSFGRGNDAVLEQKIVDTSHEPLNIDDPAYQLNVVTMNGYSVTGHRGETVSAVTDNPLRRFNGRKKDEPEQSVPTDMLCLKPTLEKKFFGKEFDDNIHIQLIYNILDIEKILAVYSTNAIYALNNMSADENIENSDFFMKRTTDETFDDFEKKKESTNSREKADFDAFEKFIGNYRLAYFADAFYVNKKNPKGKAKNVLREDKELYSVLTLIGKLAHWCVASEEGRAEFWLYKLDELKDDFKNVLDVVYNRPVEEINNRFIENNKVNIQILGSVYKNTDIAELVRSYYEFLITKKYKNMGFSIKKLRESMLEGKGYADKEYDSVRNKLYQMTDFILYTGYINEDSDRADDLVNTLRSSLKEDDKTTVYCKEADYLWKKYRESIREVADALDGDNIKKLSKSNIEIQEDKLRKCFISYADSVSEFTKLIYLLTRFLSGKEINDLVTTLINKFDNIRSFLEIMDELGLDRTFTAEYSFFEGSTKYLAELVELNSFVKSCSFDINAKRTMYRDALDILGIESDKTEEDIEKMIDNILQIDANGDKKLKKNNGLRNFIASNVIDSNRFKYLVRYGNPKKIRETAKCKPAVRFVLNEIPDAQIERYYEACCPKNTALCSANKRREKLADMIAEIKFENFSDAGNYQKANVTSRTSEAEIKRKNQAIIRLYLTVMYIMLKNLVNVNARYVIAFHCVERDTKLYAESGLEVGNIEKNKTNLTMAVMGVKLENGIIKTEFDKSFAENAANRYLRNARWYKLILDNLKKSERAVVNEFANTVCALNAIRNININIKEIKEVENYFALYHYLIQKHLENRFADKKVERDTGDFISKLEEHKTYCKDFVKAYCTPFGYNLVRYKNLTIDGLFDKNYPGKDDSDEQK
The data set is described as follows: crRNA (strand 1, pre-loaded); Mg2+; 40 mM Tris-HCl pH 7.5, 150 mM NaCl, 6 mM MgCl2, 1 mM DTT, 0.1% Tween-20, 0.2 mg/ml BSA; 25 C; 10 min per concentration, then washed. The following applies: tags: His6-TwinStrep-SUMO cleaved; N-terminal SNAP kept (SNAP-Surface 488); label: 3' end held by stalled T7 RNA polymerase.
For orientation: Kd means the constant that tells how readily two partners part at equilibrium. Molecule B1 came in with a Kd of 41 ± 6 nM.
The value for B2 was 16.8 ± 1.1 nM.
The value for B3 was 13.7 ± 0.7 nM; that for B4 was 28 ± 4 nM; that for B5 was 40 ± 17 nM.
The value for B6 was 12.2 ± 1.4 nM; that for B7 was 23.5 ± 1.4 nM.
B8 registered a Kd of 9.6 ± 0.4 nM.
The value for B9 was 26.6 ± 2.7 nM.
As for B10, the figure is 44 ± 8 nM; as for B11, 81 ± 11 nM.
As for B12, the figure is 6.68 ± 0.19 nM; as for B13, 6.44 ± 0.26 nM; as for B14, 13.2 ± 0.8 nM.
In turn, B15 showed a Kd of 32.9 ± 2.5 nM.
As for B16, the figure is 26.8 ± 1.8 nM; as for B17, 16.2 ± 1.1 nM; as for B18, 14.4 ± 1.9 nM.
B19 had a Kd of 22.2 ± 1.6 nM.
The value for B20 was 19.4 ± 1.1 nM.
The value for B21 was 8.1 ± 0.9 nM; that for B22 was 54 ± 6 nM; that for B23 was 6.8 ± 0.28 nM.
The value for B24 was 8.5 ± 0.6 nM; that for B25 was 8.8 ± 0.5 nM.
In turn, B26 showed a Kd of 43 ± 15 nM.
The value for B27 was 65 ± 15 nM.
B28 registered a Kd of 10.5 ± 0.6 nM.
The value for B29 was 38 ± 6 nM; that for B30 was 68 ± 11 nM; that for B31 was 8.6 ± 0.6 nM.
